Tests used:
[1] = target: human OX40 on cells (CHO-hOX40, 293HEK-hOX40, Jurkat-hOX40, activated primary CD4+ T cells) (human) (UniProt P43489); experiment: flow cytometry, 293HEK-hOX40, 8 nM
[2] = target: human OX40 on cells (CHO-hOX40, 293HEK-hOX40, Jurkat-hOX40, activated primary CD4+ T cells) (human) (UniProt P43489); experiment: flow cytometry, CHO-hOX40, 100 nM
[3] = target: human OX40 on cells (CHO-hOX40, 293HEK-hOX40, Jurkat-hOX40, activated primary CD4+ T cells) (human) (UniProt P43489); experiment: flow cytometry, activated CD4+ T cells, donor 2, 100 nM
[4] = target: human OX40 on cells (CHO-hOX40, 293HEK-hOX40, Jurkat-hOX40, activated primary CD4+ T cells) (human) (UniProt P43489); experiment: flow cytometry, CHO-hOX40, 100 nM blocker, competitor OX40L-hFc-fluorescein
[5] = target: cyno OX40_Fc (Acro Biosystems) (cyno); experiment: BLI, IgG1 on tip, cyno OX40-Fc 100 nM, avid
[6] = target: human OX40 on cells (CHO-hOX40, 293HEK-hOX40, Jurkat-hOX40, activated primary CD4+ T cells) (human) (UniProt P43489); experiment: flow cytometry, 293HEK-hOX40, 200 nM
[7] = target: human OX40 on cells (CHO-hOX40, 293HEK-hOX40, Jurkat-hOX40, activated primary CD4+ T cells) (human) (UniProt P43489); experiment: flow cytometry, 293HEK-hOX40, 1.6 nM
[8] = target: human OX40 on cells (CHO-hOX40, 293HEK-hOX40, Jurkat-hOX40, activated primary CD4+ T cells) (human) (UniProt P43489); experiment: flow cytometry, 293HEK-hOX40, 40 nM
[9] = target: human OX40_Fc (R&D Systems) (human) (UniProt P43489); experiment: BLI, IgG1 on tip, hOX40-Fc 50 nM, avid
human OX40_Fc (R&D Systems) (human), sequence (P43489 29-216): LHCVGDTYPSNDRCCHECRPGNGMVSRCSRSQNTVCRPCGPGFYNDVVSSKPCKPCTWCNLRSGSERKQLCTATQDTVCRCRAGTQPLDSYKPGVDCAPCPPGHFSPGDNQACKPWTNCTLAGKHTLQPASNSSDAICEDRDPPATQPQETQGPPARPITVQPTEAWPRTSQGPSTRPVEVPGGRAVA

[10] = target: human OX40 on cells (CHO-hOX40, 293HEK-hOX40, Jurkat-hOX40, activated primary CD4+ T cells) (human) (UniProt P43489); experiment: cell-based or functional assay

human OX40 on cells (CHO-hOX40, 293HEK-hOX40, Jurkat-hOX40, activated primary CD4+ T cells) (human), sequence (P43489 29-277): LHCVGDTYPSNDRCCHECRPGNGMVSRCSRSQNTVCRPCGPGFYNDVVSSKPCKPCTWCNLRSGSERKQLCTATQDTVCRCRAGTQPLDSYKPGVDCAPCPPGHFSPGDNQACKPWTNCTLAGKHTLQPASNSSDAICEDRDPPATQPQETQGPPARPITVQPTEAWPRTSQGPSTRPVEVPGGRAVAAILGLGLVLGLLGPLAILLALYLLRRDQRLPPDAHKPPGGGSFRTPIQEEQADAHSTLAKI

11D4, IgG1 OX40 antibody
MFI [1]: 2.06e+06 MFI | CHO-OX40 binding intensity (MFI) [2]: 169000 MFI | MFI [3]: 242000 MFI | MFI of OX40L signal on CHO-OX40 cells [4]: 36000 MFI | Kd [5]: 5.95 nM | MFI [6]: 2.41e+06 MFI | MFI [7]: 613000 MFI | MFI [8]: 2.76e+06 MFI | Kd [9]: 0.613 nM

pogalizumab, human IgG1 OX40 antibody
blocking of OX40L-based activation (recombinant OX40L 60 ug/ml), NFkB-luciferase in Jurkat-hOX40 [10]: > 0.08 nM
